The source of these data is IntAct's records for PubMed 16938849.

First the molecules themselves.
B1: Mitogen-activated protein kinase kinase kinase kinase 4 (Mus musculus), P97820 (parent)
chain: MANDSPAKSLVDIDLSSLRDPAGIFELVEVVGNGTYGQVYKGRHVKTVTAAIKVMDVTEDEEEEITLEINMLKKYSHHRNIATYYGAFIKKSPPGHDDQLWLVMEFCGAGSITDLVKNTKGNTLKEDWIAYISREILRGLAHLHIHHVIHRDIKGQNVLLTENAEVKLVDFGVSAQLDRTVGRRNTFIGTPYWMAPEVIACDENPDATYDYRSDLWSCGITAIEMAEGGPPLCDMHPMRALFLIPRNPPPRLKSKKWSKKFFSFIEGCLVKNYMQRPSTEQLLKHPFIRDQPNERQVRIQLKDHIDRTRKKRGEKDETEYEYSGSEEEEEEVPEQEGEPSSIVNVPGESTLRRDFLRLQQENKERSEALRRQQLLQEQQLREQEEYKRQLLAERQKRIEQQKEQRRRLEEQQRREREARRQQEREQRRREQEEKRRLEELERRRKEEEERRRAEEEKRRVEREQEYIRRQLEEEQRHLEILQQQLLQEQAMLLHDHRRPHAQQQPPPPQQQDRSKPSFHAPEPKPHYDPADRAREVQWSHLASLKNNVSPVSRSHSFSDPSPKFAHHHLRSQDPCPPSRSEGLSQSSDSKSEVPEPTQKAWSRSDSDEVPPRVPVRTTSRSPVLSRRDSPLQGGGQQNSQAGQRNSTSSIEPRLLWERVEKLVPRPGSGSSSGSSNSGSQPGSHPGSQSGSGERFRVRSSSKSEGSPSPRQESAAKKPDDKKEVFRSLKPAGEVDLTALAKELRAVEDVRPPHKVTDYSSSSEESGTTDEEEEDVEQEGADDSTSGPEDTRAASSPNLSNGETESVKTMIVHDDVESEPAMTPSKEGTLIVRQTQSASSTLQKHKSSSSFTPFIDPRLLQISPSSGTTVTSVVGFSCDGLRPEAIRQDPTRKGSVVNVNPTNTRPQSDTPEIRKYKKRFNSEILCAALWGVNLLVGTESGLMLLDRSGQGKVYPLISRRRFQQMDVLEGLNVLVTISGKKDKLRVYYLSWLRNKILHNDPEVEKKQGWTTVGDLEGCVHYKVVKYERIKFLVIALKSSVEVYAWAPKPYHKFMAFKSFGELLHKPLLVDLTVEEGQRLKVIYGSCAGFHAVDVDSGSVYDIYLPTHIQCSIKPHAIIILPNTDGMELLVCYEDEGVYVNTYGRITKDVVLQWGEMPTSVAYIRSNQTMGWGEKAIEIRSVETGHLDGVFMHKRAQRLKFLCGRNDKVFFSSVRSGGSSQVYFMTLGRTSLLSW

The variants in the experiment derive from B1. The settings on record: with Ezr.
As for D152N, the “effect of a mutation on the interaction” value is listed as “increasing interaction strength”.
